B1: UvrA, individually purified (natural protein, E. coli, UniProt P0A698 1-940, looked up)
chain: MDKIEVRGARTHNLKNINLVIPRDKLIVVTGLSGSGKSSLAFDTLYAEGQRRYVESLSAYARQFLSLMEKPDVDHIEGLSPAISIEQKSTSHNPRSTVGTITEIHDYLRLLFARVGEPRCPDHDVPLAAQTVSQMVDNVLSQPEGKRLMLLAPIIKERKGEHTKTLENLASQGYIRARIDGEVCDLSDPPKLELQKKHTIEVVVDRFKVRDDLTQRLAESFETALELSGGTAVVADMDDPKAEELLFSANFACPICGYSMRELEPRLFSFNNPAGACPTCDGLGVQQYFDPDRVIQNPELSLAGGAIRGWDRRNFYYFQMLKSLADHYKFDVEAPWGSLSANVHKVVLYGSGKENIEFKYMNDRGDTSIRRHPFEGVLHNMERRYKETESSAVREELAKFISNRPCASCEGTRLRREARHVYVENTPLPAISDMSIGHAMEFFNNLKLAGQRAKIAEKILKEIGDRLKFLVNVGLNYLTLSRSAETLSGGEAQRIRLASQIGAGLVGVMYVLDEPSIGLHQRDNERLLGTLIHLRDLGNTVIVVEHDEDAIRAADHVIDIGPGAGVHGGEVVAEGPLEAIMAVPESLTGQYMSGKRKIEVPKKRVPANPEKVLKLTGARGNNLKDVTLTLPVGLFTCITGVSGSGKSTLINDTLFPIAQRQLNGATIAEPAPYRDIQGLEHFDKVIDIDQSPIGRTPRSNPATYTGVFTPVRELFAGVPESRARGYTPGRFSFNVRGGRCEACQGDGVIKVEMHFLPDIYVPCDQCKGKRYNRETLEIKYKGKTIHEVLDMTIEEAREFFDAVPALARKLQTLMDVGLTYIRLGQSATTLSGGEAQRVKLARELSKRGTGQTLYILDEPTTGLHFADIQQLLDVLHKLRDQGNTIVVIEHNLDVIKTADWIVDLGPEGGSGGGEILVSGTPETVAECEASHTARFLKPML
B2: UvrB, individually purified (natural protein, E. coli, UniProt P0A8F8 1-673, looked up)
chain: MSKPFKLNSAFKPSGDQPEAIRRLEEGLEDGLAHQTLLGVTGSGKTFTIANVIADLQRPTMVLAPNKTLAAQLYGEMKEFFPENAVEYFVSYYDYYQPEAYVPSSDTFIEKDASVNEHIEQMRLSATKAMLERRDVVVVASVSAIYGLGDPDLYLKMMLHLTVGMIIDQRAILRRLAELQYARNDQAFQRGTFRVRGEVIDIFPAESDDIALRVELFDEEVERLSLFDPLTGQIVSTIPRFTIYPKTHYVTPRERIVQAMEEIKEELAARRKVLLENNKLLEEQRLTQRTQFDLEMMNELGYCSGIENYSRFLSGRGPGEPPPTLFDYLPADGLLVVDESHVTIPQIGGMYRGDRARKETLVEYGFRLPSALDNRPLKFEEFEALAPQTIYVSATPGNYELEKSGGDVVDQVVRPTGLLDPIIEVRPVATQVDDLLSEIRQRAAINERVLVTTLTKRMAEDLTEYLEEHGERVRYLHSDIDTVERMEIIRDLRLGEFDVLVGINLLREGLDMPEVSLVAILDADKEGFLRSERSLIQTIGRAARNVNGKAILYGDKITPSMAKAIGETERRREKQQKYNEEHGITPQGLNKKVVDILALGQNIAKTKAKGRGKSRPIVEPDNVPMDMSPKALQQKIHELEGLMMQHAQNLEFEEAAQIRDQLHQLRELFIAAS

Key:
cross-linking = molecular target: the molecule itself; test: cross-linking
[1] = molecular target: B1; test: cross-linking

Binder | binding result (cross-linking) | binding result [1]
B1 | binds | –
B2 | – | binds
